Experimental data published in US20110294729A1, “Novel Insulin Analogues” (Novo Nordisk A/S, priority 2008, published 2011).

Assays:
[1] = target: human insulin receptor A-isoform (human) (UniProt P06213); experiment: SPA competition against [125I]A14Tyr-insulin, solubilized hIR-A, analogue in yeast supernatant
[2] = target: human insulin receptor B-isoform (human) (UniProt P06213); experiment: SPA competition against [125I]A14Tyr-insulin, solubilized hIR-B, analogue in yeast supernatant
[3] = target: human insulin receptor B-isoform (human) (UniProt P06213); experiment: SPA competition; ratio of the hIR-B column to the hIR-A column

relative affinity [% of HI] [1]: 67 % of HI
relative affinity [% of HI] [2]: 140 % of HI
Ratio B/A (relative hIR-B affinity over relative hIR-A affinity) [3]: 2.1
Substance: [A8H, B25H, B27E, desB30] human insulin (ligand)
